{"source": "patent US20240082389A1", "molecular_target": "ALFA nanobody (ALFANb) fused to the N-terminus of PTGFRN, displayed on the exterior surface of exosomes (UniProt Q9P2B2)", "test": "IL-12 ELISA of loaded EVs"}
{"substance": "mouse IL-12 fused to ALFAtag peptide (ligand)", "values": [{"measurement": "fold more IL-12 loaded per EV than on control EVs with IL-12 genetically fused to PTGFRN", "value": 290, "unit": "fold"}]}
